Where two headings read alike, the source gives them in different places.

Holding throughout (assay): resonant mirror detection
Test [1] has as its target T1, complex of 4.1G and CaM (human | , UniProt O43491 1-1005; P0DP23 1-149).
For test [2], the target named is T1, complex of 4.1G and CaM. This is another data set of the same source.
Test [3] concerns the target full length recombinant human protein 4.1G (human, UniProt O43491 1-1005).
For test [4], the target named is recombinant 4.1R^135 (135kDa isoform of protein 4.1R) (human, UniProt P11171 1-864).
Sequence of recombinant 4.1R^135 (135kDa isoform of protein 4.1R) (P11171 whole entry, canonical isoform): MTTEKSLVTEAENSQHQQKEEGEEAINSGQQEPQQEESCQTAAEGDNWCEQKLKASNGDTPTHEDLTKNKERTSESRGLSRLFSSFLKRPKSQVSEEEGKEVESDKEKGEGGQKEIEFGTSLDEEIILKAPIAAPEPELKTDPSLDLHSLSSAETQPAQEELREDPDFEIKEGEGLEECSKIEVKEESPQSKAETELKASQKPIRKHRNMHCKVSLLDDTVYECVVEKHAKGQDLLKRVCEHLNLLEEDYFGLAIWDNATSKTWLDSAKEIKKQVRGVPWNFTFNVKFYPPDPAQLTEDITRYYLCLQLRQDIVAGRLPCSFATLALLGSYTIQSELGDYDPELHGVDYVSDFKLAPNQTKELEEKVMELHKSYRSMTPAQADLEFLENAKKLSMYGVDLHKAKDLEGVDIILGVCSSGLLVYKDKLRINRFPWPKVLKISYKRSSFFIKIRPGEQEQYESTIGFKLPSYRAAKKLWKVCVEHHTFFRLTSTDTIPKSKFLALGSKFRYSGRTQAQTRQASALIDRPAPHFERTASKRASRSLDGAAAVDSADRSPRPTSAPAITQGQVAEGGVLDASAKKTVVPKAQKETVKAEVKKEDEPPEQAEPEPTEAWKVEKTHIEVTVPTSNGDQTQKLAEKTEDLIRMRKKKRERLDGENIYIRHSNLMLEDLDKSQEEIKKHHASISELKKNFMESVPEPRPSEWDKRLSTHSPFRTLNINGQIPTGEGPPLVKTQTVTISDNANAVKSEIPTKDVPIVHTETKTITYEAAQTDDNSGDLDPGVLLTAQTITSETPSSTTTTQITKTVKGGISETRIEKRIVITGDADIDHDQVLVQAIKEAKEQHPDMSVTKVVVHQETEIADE

Sequence of full length recombinant human protein 4.1G (O43491 whole entry, canonical isoform): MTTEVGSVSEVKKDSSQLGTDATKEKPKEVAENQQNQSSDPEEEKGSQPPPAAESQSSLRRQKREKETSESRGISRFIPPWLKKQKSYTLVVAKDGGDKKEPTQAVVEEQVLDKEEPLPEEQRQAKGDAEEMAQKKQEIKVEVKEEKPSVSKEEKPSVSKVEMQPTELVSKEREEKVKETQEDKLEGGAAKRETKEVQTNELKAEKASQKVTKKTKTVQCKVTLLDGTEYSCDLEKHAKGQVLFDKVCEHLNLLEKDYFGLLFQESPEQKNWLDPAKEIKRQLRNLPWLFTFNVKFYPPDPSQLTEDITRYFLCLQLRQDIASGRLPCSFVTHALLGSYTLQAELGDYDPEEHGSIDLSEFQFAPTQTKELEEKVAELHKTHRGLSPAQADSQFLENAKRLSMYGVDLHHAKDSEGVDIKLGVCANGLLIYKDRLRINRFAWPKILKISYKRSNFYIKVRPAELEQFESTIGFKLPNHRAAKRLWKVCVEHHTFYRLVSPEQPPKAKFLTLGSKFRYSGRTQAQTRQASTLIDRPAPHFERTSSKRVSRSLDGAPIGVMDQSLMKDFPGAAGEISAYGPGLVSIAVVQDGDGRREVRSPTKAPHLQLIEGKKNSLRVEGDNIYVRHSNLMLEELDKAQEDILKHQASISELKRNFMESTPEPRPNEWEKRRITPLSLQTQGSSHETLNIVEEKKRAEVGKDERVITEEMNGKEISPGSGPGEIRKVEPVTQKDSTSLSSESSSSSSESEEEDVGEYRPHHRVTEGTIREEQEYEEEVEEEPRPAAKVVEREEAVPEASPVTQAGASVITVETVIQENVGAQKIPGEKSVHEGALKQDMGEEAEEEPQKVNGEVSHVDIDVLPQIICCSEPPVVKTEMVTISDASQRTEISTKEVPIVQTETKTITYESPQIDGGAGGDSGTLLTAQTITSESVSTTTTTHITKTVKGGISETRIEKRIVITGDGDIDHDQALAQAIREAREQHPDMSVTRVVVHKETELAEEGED

As usually defined, the Kd is a measure of binding affinity in units of concentration. A word on the koff: it is the rate constant with which the complex falls apart. Broadly, the kon is a measure of how fast the partners come together. In the test with complex of 4.1G and CaM [1], RYMYRHKGTYHTNEAKGTEFAESADAALQGDPALQDAGDSSRKEYFI (domain or fragment, UniProt P04921 82-128, looked up) [cytoplasmic domain of glycophorin C] gave a Kd of 155 nM, a koff of 0.013 s⁻¹ and a kon of 84000 M⁻¹ s⁻¹. In the test with complex of 4.1G and CaM [2], the Kd amounted to 1250 nM, the koff came to 0.015 s⁻¹ and the kon came to 12000 M⁻¹ s⁻¹.

B1: p55 (natural protein, UniProt Q00013 1-466, looked up)
chain: MTLKASEGESGGSMHTALSDLYLEHLLQKRSRPEAVSHPLNTVTEDMYTNGSPAPGSPAQVKGQEVRKVRLIQFEKVTEEPMGITLKLNEKQSCTVARILHGGMIHRQGSLHVGDEILEINGTNVTNHSVDQLQKAMKETKGMISLKVIPNQQSRLPALQMFMRAQFDYDPKKDNLIPCKEAGLKFATGDIIQIINKDDSNWWQGRVEGSSKESAGLIPSPELQEWRVASMAQSAPSEAPSCSPFGKKKKYKDKYLAKHSSIFDQLDVVSYEEVVRLPAFKRKTLVLIGASGVGRSHIKNALLSQNPEKFVYPVPYTTRPPRKSEEDGKEYHFISTEEMTRNISANEFLEFGSYQGNMFGTKFETVHQIHKQNKIAILDIEPQTLKIVRTAELSPFIVFIAPTDQGTQTEALQQLQKDSEAIRSQYAHYFDLSLVNNGVDETLKKLQEAFDQACSSPQWVPVSWVY
With B1, in test [3], the Kd was determined as 181 nM, the koff was 0.0085 s⁻¹ and the kon was determined as 47000 M⁻¹ s⁻¹. Further, in test [4], the Kd stood at 248 nM, the koff is 0.0047 s⁻¹ and the kon turned out to be 19000 M⁻¹ s⁻¹.

B2: cytoplasmic domain of CD44 (domain or fragment, UniProt P16070 671-742, looked up)
chain: NSRRRCGQKKKLVINSGNGAVEDRKPSGLNGEASKSQEMVHLVNKESSETPDQFMTADETRNLQNVDMKIGV
In the case of B2, in test [3], the Kd stood at 178 nM, the koff was 0.0066 s⁻¹ and the kon turned out to be 38000 M⁻¹ s⁻¹. In addition, in test [4], the dissociation constant (Kd) turned out to be 329 nM, the koff came out at 0.015 s⁻¹ and the kon was found to be 42000 M⁻¹ s⁻¹. In the test with complex of 4.1G and CaM [1], this molecule displayed a Kd of 197 nM, a koff of 0.014 s⁻¹ and a kon of 71000 M⁻¹ s⁻¹.

B3: cytoplasmic domain of band 3 (domain or fragment, UniProt P02730 1-403, looked up)
chain: MEELQDDYEDMMEENLEQEEYEDPDIPESQMEEPAAHDTEATATDYHTTSHPGTHKVYVELQELVMDEKNQELRWMEAARWVQLEENLGENGAWGRPHLSHLTFWSLLELRRVFTKGTVLLDLQETSLAGVANQLLDRFIFEDQIRPQDREELLRALLLKHSHAGELEALGGVKPAVLTRSGDPSQPLLPQHSSLETQLFCEQGDGGTEGHSPSGILEKIPPDSEATLVLVGRADFLEQPVLGFVRLQEAAELEAVELPVPIRFLFVLLGPEAPHIDYTQLGRAAATLMSERVFRIDAYMAQSRGELLHSLEGFLDCSLVLPPTDAPSEQALLSLVPVQRELLRRRYQSSPAKPDSSFYKGLDLNGGPDDPLQQTGQLFGGLVRDIRRRYPYYLSDITDAFSP
Regarding B3, in test [3], the Kd is 185 nM, the koff stood at 0.014 s⁻¹ and the kon was determined as 80000 M⁻¹ s⁻¹. In test [4], the Kd worked out at 23 nM, the koff was found to be 0.0071 s⁻¹ and the kon is 310000 M⁻¹ s⁻¹. In the test with complex of 4.1G and CaM [1], this molecule gave a Kd of 127 nM, a koff of 0.064 s⁻¹ and a kon of 510000 M⁻¹ s⁻¹.

(Values after PMC4371549 (The Biochemical journal, 2010).)
